Laboratory results reported in the domain aggregation screens of Martell et al. (2025).

Experiment: soluble fraction after stress (log2 fold change); higher = more stays soluble; pooled small domains, quantitative proteomics
Conditions: stress: 50 degC
How it was run: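 Custom libraries of small protein domains were pooled and measured in a high-throughput format, with quantitative proteomics as the read-out. Each library was stressed at 50°C. The value is the log2 fold change in the amount of each protein that stays soluble after stress, used as a measure of aggregation propensity; higher values mean more of the protein stays soluble.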

Sequence | soluble fraction (log2)
HMTMEQAEFLSRQFNLLSQRLNDPSIEWQDIADLRSEYTGEDEHRDTIRKGAKLFYEYLEAGWIKN | -0.581
HMLDDDAGMIQAILRKAPGHYLPLHDKSDPASIQAQLGISKAQFKRAVGTLMKQGLIRQVKGDGLYLTQ | 0.0324
HMWNTADDIKEAIWKLIQSEDPKKPYSDLKISQLLLEKEMKISRRTVAKYRKEMGILGTYSRK | -0.347
HMTSTEQQIEQFIGTLVSLGGSAGNQRLLEALGWQDSIYQRVKQQLIDDGRIRPGRGRGGSVVLAE | -0.074
HMTGKASEIAALLEQRIAAGDYPAGSKLPSERELAASFHVSRNTIRDAIALLAARKIVSTKWGAGTVVLG | -0.139
HMELDFLRLQIITGIHSGRLSNNEILMMYDTYSQKGGNSYVSRIVNDYVDENNIKEEGKRNARK | -0.346
HMIMTGSIQEKNGKYYTVLNIKDKNGKYKKKWQTTGLPVKGNKRKAEQILRRRIAEYEANQL | -0.436
HMHVVVIDKQGALSYQGKAITLLDLKNIVIDVPKETPFLIKADKDIHLQSFVEVLDLIKTAGFKKVSLQ | -0.182
HMIQIGEQIRYYRTKIGISQEALALMADINPAYIGQIERGIKSPTVNTIKKIANAMGINLHTLFT | -2.91
HMRRNLSGEDTIVNRMAQWQYTQEQKNELHKMMDAGMPQEDILSVFYPEIKAEEMHRFLLAFQTAHNSG | -0.162
HMDVKQSAAGVAGRIRFELNRTLTGQGHEKFTSASQAIGPRPAAELARRLFNSGSVVGVHVFANIVTVDLL | -0.051
HMTGQVASMVERLAQRLKDQPQDAEGWAMLARSYSVLGRHPEALQAYEKALALRKDDANLLADYADSLA | -0.087
HMLEDDTVNTAEGIKIGDSFAAVTKAYGTDYVAAGNTYAYSKDKMTLTFVMNNDKVSTISYSLLTS | -0.129
HMGAKVFTVPNLIGKYAIEAGIILKKEGLSEGEVKEENSDKYAAGQIIDQYPAADSPAKENDKINYVVSIG | 0.00836
HMPENESPEEKHARFRRFAEGLMARLDENESVRDILPELKVWLDDRELDRDDQRLARNLMLTAGKRE | 0.0802
HMFDEVKDAARRLAALLDQAGGTLTLNDKSAPEEVAALTGMSKKVFKRALGHLMSRSEVVVADGRITKKD | -0.289
HMEKIYLISDAAKQVNVEAHVLRYWEEELDIPAKRNELGHRYYTQEDIETFRKVKELKAQGIQLKGIKNIL | 0.123
HMASQVERGAVVVTDQRIFFIGVSSEGIEVHGTKIFGMSEKAPLYSHMKGLKKGDSFQFNGLKYVIQDIY | -3.39
HMNFTVTDKNAVLYSNDNTKVYESPDINSKLVTTIAKDLPVNVTGITSNGWFRISLEGTYYVPGNGLEQR | 0.141
HMAGHKVDFSELPARSQAFIGKNFPTEMVKNVEMERKDAKDHYTVLLSNGTKVMFDGTSGELTGV | 0.0973
HMTRLSSREAQVISLVRDGMTNQQIAERLELSPLTIKNHVQNILRKLDVSNRAQAVAKAVKARLI | -0.3
HMAATHYEGIKQDGETDDAVIERVLTGLSVTANKDDIFIVKTLIAGTKYSYTAYVYNGNAWAAM | 0.0325
HMEQVKFFDAKVITTPPNRLKTRYTPAGNLRPEADWLQSGAIVPVYETSGAGWYRIGYQTWASAEWMQRLD | -0.934
HMLNSLDATQRLKLNKDGVVVFNFGKYVDQSVIDIFKKEKGYYNWMMSKDFSQQVKNIITKIYQEEIIG | -0.982
HMETFEKIKELAKKRGKALGQVEEDLGYGRNTLYKIKNSTPNAERIAEIANYFNVSTDYLLGRTDNPTIAK | 0.203
HMALKRVAPQGEDKLSAQLDGVEFDKLIPWLGMLEHDHRIAIVNLSIDRANATGLVNARVIL | -0.0239
HMIAKIEGQISYVGNRFLIVDVSGVGYKLFVTNEAISLSKVEESIKLWVHTAVRENSIDLYG | -0.7
HMVSYTLPTLHTGKNWYVDFTAYDPAEQKMKRKKYMLDGISKITERRKRAVDIIATVTARLRSGWNPWA | -2.7

Sequence | soluble fraction (log2)
HMAPGASEVPDLTSLPAREALLRLTKLGLLPEMEGTGRLVRQQPAAGTRVPKGSKVHLVFEPG | 0.0613
HMKEQLEAYVNRLFADAALTIRNAEVRQEILQHALDRYDDLIASGKTEQEAYDETVSGIGDVSGLYEHK | -0.195
HMTKLLITNYERNVLINSYLLKNTPELDDIRRLLVHNKHISENDVSTEMARRIKKHKADWLRVT | -2.71
HMADVPSTIFEAYRILGLNPEAPPVAVKKVVDALRMSWHPDHARSEPDRRHREERIKQINAAWDLLKGV | 0.148
HMPSPEMLKETEKRKAEEIYRSQINLFIDDYHRLKGQYPLLEDIIDNKKDSIPIEILREISISILKNYFE | -0.242
HMATYTPYDKQGAKLWRVTAYLGMDSVTGKQRNMKKGGFKTKKEAQLYYNQVKLDFENGTLDQ | -1.22
HMRGHASVEIKRIVYKYKLTDQELAKITGMKASDFPIYHDHLQLILPKRYWARVLDALQNYEKEHES | -4.18
HMGVDMAPESIVGKKGVAATELRPAGKVEIHGQVYDAVSVGMFIKRGTGVKVVRYEAAQIYVEPE | 0.146
HMKSNKEKIYDFIQMHDTAEKEGGVSTTYIAQALSLQRTNVSSLLNALVEEGRIHKSNGRPVLYSIAG | 0.0955
HMFYQLTENQRRILSSLEQNPRVSAAHLAEEIGISSRKVENNLKKLKEIGLLQRHGSPRKGYWSINQGW | -0.623
HMTVKRNILQELLKTAFKHPEDFRPSKTFYGETGIGQKRFWALYYGHKAVTQKEYYAVADYLG | -0.0349
HMTSSSGTITADWLNVRSGAGTNFSRLGSIAGGTRLTVISVHGEWYKITASFEGEIRTGYVHSQYVQMDGE | -3.96
HMSDEEAISKLPGVGPAILEKLKEAGYNDIMTIAVDSPKNLAELAEIGEPTAAKIIAAAKKAAD | 0.0933
HMAGISQGLAENVERRITTLLREQKEVPVHDIDFPGISRETVGQVLHQMVQEEKLLLDDGMISLSPNQ | 0.143
HMNVWESVDLRQEQHEAKRRLILKQAALLFADRGFHETTIDQIAEALNVTKPTIYYYIESKEDLLYQVA | -0.0821
HMDHFFSKYDSIVNHTVQKKETLFGISKKYGLTINEVIKFNPGIQIDKLKRRSVLIIPLMKKN | -0.917
HMPAFWILAVLAGGRRHGYQIMREAALSSEGLVTLKPTTLYAALERLERDGAIQQDGEEIVDGRVRRYYRI | 0.259
HMGAAAQLLHAVVLRVPAEDTMKFVSETPELRRYLGAPLGPTAALVRPGQEQELAAALQAHGILVEFDE | -0.0602
HMRGQGRILAMLKIQPEIATKDLAYLLGIRQQSLNELLKKLEKNSYVERRPSEKDRRVMVVHLTEKGKE | -0.715
HMTRRGPLTEGDRVQVRDPKGRFHQVILVRGGRFQSNRGGFNHDDVIGRPDGQVIITDEGRQFQIL | 0.512
HMAMSAGEVVERIREHVGHPATIKELMRVLAIPNEERYRFRRRIKQLVEAGELIRIRGNRYGLADR | -1.85
HMPQTDDSEPLGKYGRMRLAYLKNQRPVLYNQMLLNGTLWPHLQDVQKTAYEWLERTMTTLLDK | -0.0745
HMGEDFPYVAYATDSVRLRSKPSSSGDILAVIRQGDAVLITGSDGNYKIVEYEGRKGYVISAFLSQTP | -0.199
HMFDPAKQMQRIRKYAGMNRKEFSEWLNIPYRTMTDWELGNRTMPVYLLELIVYKVNHEIANA | 0.186
HMTNNFIVTWRNYNEEVLEIDVNVKKGSMPKYNGKTPEREGYQFVGWDPEITEVTKDITYVAQFM | -0.415
HMYFMDEETWESKKTLLNDWYEANPEYADRRAISDGLFKIGDLQPDFRRRHWGSIGVIFADIPNSPMG | -0.915
HMGGQEEALNRLVLRELLGTLEKKERDLIVRRYFYDQTQTKIAEALGISQVQVSRMEKRILKKMREGF | -0.914
